Test results reported in patent US6967029 (Amgen, dated 2005).

Molecular target: T1, human SCF receptor, native, on cell membranes (human, UniProt P10721 26-976)
T1 construct: whole, on cells; also called human SCF receptors on OCIM1 cells (isolated OCIM1 plasma membrane); SCF receptors on leukemic blasts
Assay: radioreceptor assay: competition with 125I-huSCF on OCIM1 plasma membrane

specific activity in the radioreceptor assay relative to SCF^1-164: ~50 % of the value for SCF^1-164
B1: E. coli derived human SCF^1-130 analog (ligand)
chain: EGICRNRVTNNVKDVTKLVANLPKDYMITLKYVPGMDVLPSHCWISEMVVQLSDSLTDLLDKFSNISEGLSNYSIIDKLVNIVDDLVECVKENSSKDLKKSFKSPEPRLFTPEEFFRIFNRSIDAFKDFV
notes: Plasmid encodes an initiating methionine before residue 1; Dimeric in solution by gel filtration
